Source: the supplement of paper PMC9170038

These sequences were tested on MS2 coat protein (assay: apparent KD of MS2 coat protein; higher = weaker reporter binding). Conditions: Eterna round: R107; input ligand: none.
Method: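 RNA-MaP round R107: designed RNA switches with theophylline, tryptophan, arginine or FMN aptamers are transcribed on-chip within common flanks. They are titrated with SNAP-549-labelled MS2 coat protein in RNA-MaP buffer (100 mM Tris pH 7.5, 80 mM KCl, 4 mM MgCl2), without ligand or with the indicated ligand. Median apparent KD per design.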

Row | Sequence | apparent KD of MS2 coat protein
1 | UCGCGAUAGAGAAGGAGCGUCAACACCACUUAACAUGAGGAUCACCCAUGUGUUACUUUGUGACAGGUAGGUCGCUCUAGCGCUU [JR_Nu_ExcArginiB_Sub026] | 0.0193 µM
2 | GGAAACCAAAGCGAUACCAGCGUACAUGAAAAGAGCGAAAACAUGAGGAUCACCCAUGUACGCCCUUGGCAGCGCAAAACCAAGG | 0.0443 µM
3 | UGGGUACAUGAGGAUCACCCAUGUACUGAAGGAGCGAGAAUUAUCUCAGGUAGGUCGCAGACAUGAGGAUCACCCAUGUAGUGGG [Exclusion Arginine A GF 13] | 0.018 µM
4 | CCUAUGCAGUCGGCCGCCACUGUACAUGAGGAUCACCCAUGUUCCAAAAUAAAAGGAACUGAAAUCAGGACCGGGACUGUAUAGG [Ex Tryptophan B 1] | 0.0333 µM
5 | AGCUCGCAUCCUCUAGCGUCAAAGACGCGUCGAGGACCGGUACGGCCGCCACUCGACUUGAGGAACACCCAAGUCCUAGCGAGCA [TrypAX 12 #SwitchBubble #AlternativeMS2 #MS2Late #CuTurnoff] | 0.188 µM
6 | AAAUUAUCGGCGGCCGCCACUAGAGUUAGGCUUAUGUACUGGGUAACAUGAGGAUCACCCAUGUAUAGGACCGGGCCAUAAUAAA [Same State - Tryptophan B (Freestyle 4)] | 0.0552 µM
7 | UGAUACCAGUCGGCCGCCACUAUGCUAGAUACUAGCAAUAAAUGGGAACAUGAGGAUCACCCAUGUAGGACCGGGACUGGUAUCU | 0.0336 µM
8 | UUUGAUUAGAGAAGGAGCGUGAUAUUUAUAUAGUGUGUAUGUACAUGAGGAUCACCCAUGUCACAGGUAGGUCGCUCUGAUAAGG [JR_Nu_ExcArginiB_Sub030] | 0.0132 µM
9 | AUCCACAGCCGAAGGAGCGCAGUAGGAUGACAUGAGGAUCACCCAUGUGUGUGAUGUGGAUUGCAGGUAGGUCGCGGAGUGGAUU [Exclusion - Arginine B (Freestyle 9)] | 0.0545 µM
10 | UGUUAUGUGGGAAGGAGCGCAUACUUCACAUGAGGAUCACCCAUGUCAAGACGUGAGUCAGUGCAGGUAGGUCGCCUAGUUAAGA [Same State - Arginine B (Freestyle 17)] | 0.0739 µM
11 | AUUAUCGUAGGUUAAAGUUUAGAAACUGAAGGAGCGUGGUAUUACACAGGUAGGUCGCAGAUUUUACAUGAGGAUCACCCAUGUU [JR_ExcArginiA_Sub010] | 0.0224 µM
12 | UUAAUCUUAGAAGAAAACUUUUAAGCAGAAGGAGCGUGAUAAAACACAGGUAGGUCGCUGAAGGGAACAUGAGGAUCACCCAUGU [AstrosSSArgA#18] | 0.022 µM
13 | ACGCGCAGCAGAAGGAGCGUCUUAAUUCUACAUGAGGAUCACCCAUGUUUACAUUGGAUAUGACAGGUAGGUCGCUGGUGUGCGA [#06 Same State - Arginine B] | 0.018 µM
14 | GGUCUCUGGAGCGAUACCAGCUUGAGUGUACUGGCCAGGUACAUGAGGAUCACCCAUGUAAGCCCUUGGCAGCGCUCCAGAGACC [#1 Exclusion - Theophylline B Attempt #15 (HarryS)] | 0.00921 µM
15 | UGAUGGUUCGGAAGGAGCGUGUAAGAACAAGAACAUGAGGAUCACCCAUGUAUUAAUUUAACACAGGUAGGUCGCCGGGUUAUUG [11.J] | 0.0163 µM
16 | UAUCCACAUGAGGAUCACCCAUGUAGGGAAGGAGCGGUGAUUUCACCAGGUAGGUCGCCUUGCUGAGGGUUGCCGGUGGAAUCGU [Exclusion - Arginine A (Freestyle 33)] | 0.0157 µM
17 | ACAUUUAACUGAAGGAGCGUGAUAAACAUGAGGAUCACCCAUGUACCACAGAUUUUCAGAUCACAGGUAGGUCGCAGACUAAUGA [JR_ExcArginiB_Sub014] | 0.0111 µM
18 | UGCACUCAUGCGGCCGCCACUGUCGGCCGCCACUAAACAUGAGGAUCACCCAUGUAGGACCGGGACAGGACCGGGCAUGGGUGCU [TryBS - #DoubleAptamer 2] | 0.0157 µM
19 | AACAUGAGGAUCACCCAUGUCCUCGUGAUUCGAGGACCGGUACGGCCGCCACUCGGUCCUCGCGAGGAGGAGUCAAAGACUCCAA [Omei Trp A SS A v1] | 0.144 µM
20 | UUAACGAGCUGAAGGAGCGCUCCUCAACAACAUGAGGAUCACCCAUGUACACAUAAUAGGGAGCAGGUAGGUCGCAGCAGGAUGG [ss-argB-?] | 0.0153 µM
21 | ACAUGAGGAUCACCCAUGUGCAGAACGGAUACCAGCGUGCUGGUACGCCCUUGGCAGCCGGACAUGAGGAUCACCCAUGUGUGGA [Exclusion Theophylline A GF28] | 0.0421 µM

Same assay, conditions: Eterna round: R107; input ligand: theophylline 20 uM

Row | Sequence | apparent KD of MS2 coat protein
22 | AGACAUGUAAGAUAAAUGACUUAUACAGAUACCAGACUGUCUAAUGUCCCUUGGCAGCUGCAUAACAUGAGGAUCACCCAUGUAA [JR_ExcTheophyA_Sub010] | 0.0242 µM
23 | UCUUUCUAUUGUGAUACCAGACGUACAUGAGGAUCACCCAUGUUUCAUUCUUGUUUUAAAGUCCCUUGGCAGCACUAUUUGUUCG [JR_Nu_ExcTheophyB_Sub028] | 0.0239 µM
24 | UAUAUAUAACAUGAGGAUCACCCAUGUAAACGAGGACCGGUACGGCCGCCACUCGGCCGGCAAGGGAGAGGACGGGAAACCGUCG [ETA NP+V+V2 #26] | 0.0231 µM
25 | UACACAUGACAUGAUACCAGCCCAUGUGAACAUGAGGAUCACCCAUGUAUGAGGACAUGAGGCCCUUGGCAGCAUGUAUACAUGA [Same State Theophylline B 2] | 0.0127 µM
26 | CUACAUUUGUAGAAACCGGUCAACAAUAAUCGAGGACCGGUACGGCCGCCACUCGAUGUGAAAUACACAUGAGGAUCACCCAUGU [Tryptophan A 13] | 0.0191 µM
27 | UCGCGAUAGAGAAGGAGCGUCAACACCACUUAACAUGAGGAUCACCCAUGUGUUACUUUGUGACAGGUAGGUCGCUCUAGCGCUU [JR_Nu_ExcArginiB_Sub026] | 0.0253 µM
28 | GGAAACCAAAGCGAUACCAGCGUACAUGAAAAGAGCGAAAACAUGAGGAUCACCCAUGUACGCCCUUGGCAGCGCAAAACCAAGG | 0.0508 µM
29 | UGGGUACAUGAGGAUCACCCAUGUACUGAAGGAGCGAGAAUUAUCUCAGGUAGGUCGCAGACAUGAGGAUCACCCAUGUAGUGGG [Exclusion Arginine A GF 13] | 0.0227 µM
30 | CCUAUGCAGUCGGCCGCCACUGUACAUGAGGAUCACCCAUGUUCCAAAAUAAAAGGAACUGAAAUCAGGACCGGGACUGUAUAGG [Ex Tryptophan B 1] | 0.0372 µM
31 | AGCUCGCAUCCUCUAGCGUCAAAGACGCGUCGAGGACCGGUACGGCCGCCACUCGACUUGAGGAACACCCAAGUCCUAGCGAGCA [TrypAX 12 #SwitchBubble #AlternativeMS2 #MS2Late #CuTurnoff] | 0.217 µM
32 | AAAUUAUCGGCGGCCGCCACUAGAGUUAGGCUUAUGUACUGGGUAACAUGAGGAUCACCCAUGUAUAGGACCGGGCCAUAAUAAA [Same State - Tryptophan B (Freestyle 4)] | 0.0889 µM
33 | UGAUACCAGUCGGCCGCCACUAUGCUAGAUACUAGCAAUAAAUGGGAACAUGAGGAUCACCCAUGUAGGACCGGGACUGGUAUCU | 0.0429 µM
34 | GUUUUGGGAUCGGCCGCCACUACAUGAGGAUCACCCAUGUGGACAAAUAGGGUUUUUAAGCUCGGUAGGACCGGGAUUCGAACAU [Abeis] | 0.019 µM
35 | UUUGAUUAGAGAAGGAGCGUGAUAUUUAUAUAGUGUGUAUGUACAUGAGGAUCACCCAUGUCACAGGUAGGUCGCUCUGAUAAGG [JR_Nu_ExcArginiB_Sub030] | 0.0216 µM
36 | UUGGCACGGACGGCCGCCACUCUUUCACAUGAGGAUCACCCAUGUUAUCUAGUCCUCAGCAGAAAGAGGACCGGGUCGGAGUUGG [theeternabot_exclusion_MS2_Trp_B_13] | 0.168 µM
37 | AUCCACAGCCGAAGGAGCGCAGUAGGAUGACAUGAGGAUCACCCAUGUGUGUGAUGUGGAUUGCAGGUAGGUCGCGGAGUGGAUU [Exclusion - Arginine B (Freestyle 9)] | 0.082 µM
38 | UGUUAUGUGGGAAGGAGCGCAUACUUCACAUGAGGAUCACCCAUGUCAAGACGUGAGUCAGUGCAGGUAGGUCGCCUAGUUAAGA [Same State - Arginine B (Freestyle 17)] | 0.0751 µM
39 | AUUAUCGUAGGUUAAAGUUUAGAAACUGAAGGAGCGUGGUAUUACACAGGUAGGUCGCAGAUUUUACAUGAGGAUCACCCAUGUU [JR_ExcArginiA_Sub010] | 0.0263 µM
40 | UACUUGCUGACGGCCGCCACUAGAACAUGAGGAUCACCCAUGUACCCGGUCCUAAUCCUCAUGACUAGGACCGGGUCAGCAAGAU [(Trp1)-(Ms2)-(T)'-(M)'-(Trp2)_Design2] | 0.0421 µM
